Measured values: the DeepSol protein solubility set

assay: soluble on expression in E. coli; label from the status in PepcDB or PDB records

Sequence	soluble on expression in E. coli
SLVARSVVVSAEAVYSHEGEYVGDHVLVDEGLVKSISRGEPHVSVGKRVAVKGFLLPPLVDAHLHMRSLGASFRIVNLKGASSPEEVAKRLAAANSPIAVGRGWNEEEFRPGSRLDRRILDSYLGEKPALAVRICGHVAVANSAFIRESGVDKLFPNLVDRERGLLLEDAVSYAVSVAMKTYNNEELLRDAASALASVGVFGVSSMACSEEEVRALSLIGDALEVRVACYLRRGVEPPPKRAGARWSIVGVKLFADGSLGGRTAYLRRPYISGENEGWRGLKLLSSRDIAEEAVSNSHRGLATAVHAIGDAALDEVLEGFSNAISRGVEPGMLRVEHASLAWPNQIDRLASLRVWTVVQPLFRVSDWWLESRVGSDMLQAAYPFASMLRAGVKLALSTDAPVETYDPAETFKAAVGLCSSRLCRESESLTPRETLKLYTLNSALASGGPVAWLGRLRRGAPALFAVANVDVLNSGRKELEKLKFRGLNLAK	not soluble
MKNAVHFGAGNIGRGFIGKLLADAEVEVTFADVDVPLVDQLSHKQEYKVKVVGTECKIDTVTHVTAVNSASEDVIDRIVKTDLVTTAVGPNVLDIIAKTIAKGIAKRFEAGNDAPLNIIACENMVRGTTHLKGEVYKHLDKSLHAKADELVGFVDSAVDRIVPPAEAANDDPLEVTVESFSEWIVDEQQFKGDIPNIAGMEKTNNLMAFVERKLFTLNTGHCITAYLGCLKGHRTIREAIEDPNIHAEVKQAMQESGEVLIRRYGFDHDMHNAYIEKILGRFANPYLVDEVDRVGRQPIRKLGANDRLVKPLLGTIEYGTENQTLLKGIAAALKYTNDTDPQAVELQTSLKEVGVTKTLAKYTGLAEDSDEVAQIETLYNQL	not soluble
AHHHHHHGSDIKPGKITVQANPNMPEEIANLFRKQHYELVGRHSGVKLCHWLKKSLTEGRFCYKQKFYGIHSHRCLQMTPVLAWCTHNCIFCWRPMETFLGTEVPEPWDDPAFIVEESIKAQRKLLVGYKGNPKVDKKKFEEAWEPKHAAISLSGEPMLYPYMGDLVEEFHKRGFTTFIVTNGTVPESLREMIKDDKLPTQLYVSLTAPDIESYNKVNIPMIPDGWEKILEFLELMRDIPTRTVVRLTLVKGENMHNPEGYARLIMKARPMFVEAKAYMFVGFSRNRLTINNMPSHEDIREFAEALVKYLPGYHIEDEYEPSRVVLIMRDDVDPSGTGLEGRFIKH	not soluble
MSTTRKLILANIHGVDKPGVTAELTAILAKHNAFILDIGQADIHNNLSLGILFQTDESHSGSILKDLLFKSYELDVTVRFEPITEEAYSEWVGMQGRNRYIITVVARKITAEMIAGIARSSAEQGLNIDDIKRLTGRIPLNETDRSPKASVEFSMRGTPTDIEKLQRNFMEMASQLNMDISFQRESMFR	not soluble
MSLSDGAVVRALVLEAPRRLVVRQYRLPRIGDDDALVRVEACGLCGTDHEQYTGELAGGFAFVPGHETVGTIAAIGPRAEQRWGVSAGDRVAVEVFQSCRQCANCRGGEYRRCVRHGLADMYGFIPVDREPGLWGGYAEYQYLAPDSMVLRVAGDLSPEVATLFNPLGAGIRWGVTIPETKPGDVVAVLGPGIRGLCAAAAAKGAGAGFVMVTGLGPRDADRLALAAQFGADLAVDVAIDDPVAALTEQTGGLADVVVDVTAKAPAAFAQAIALARPAGTVVVAGTRGVGSGAPGFSPDVVVFKELRVLGALGVDATAYRAALDLLVSGRYPFASLPRRCVRLEGAEDLLATMAGERDGVPPIHGVLTEGHHHHHH	not soluble
GPMSAQDVENAVEAALDPSVGPIIKQQATDFIGSLRSSSTGWKICHEIFSEKTKYKPSTRLICLQTLSEKVREWNNESNLLELQMIRDSVWSYIKELSFLDEPAYISNAVQHLLTLLFLQLYPSNWNDFFASLQGVIAASSQSEFSNFYLKVLLSIGDEIADSLVLKTDVQIQKDNLVKDAIRANDMSDIVSFVYEMMLAYSNAKNYGTVGLCLQVYAQWVSWININLIVNEPCMNLLYSFLQIEELRCAACETMTEIVNKKMKPLEKLNLLNILNLNLFFSKSQEQSTDPNFDEHVAKLINAQGVELVAIKSDPSELSPELKENCSFQLYNLFPYLIRYLSDDYDETSTAVFPFLSDLLVSLRKESSSKELSASLKEFLKSLLEAIIKKMKYDESQEWDDDPDSEEEAEFQEMRKKLKIFQDTINSIDSSLFSSYMYSAITSSLSTAATLSPENSWQLIEFALYETYIFGEGLRGPDAFFNEVDKSPTVLSQILALVTTSQVCRHPHPLVQLLYMEILVRYASFFDYESAAIPALIEYFVGPRGIHNTNERVRPRAWYLFYRFVKSIKKQVVNYTESSLAMLGDLLNISVSPVTDMDAPVPTLNSSIRNSDFNSQLYLFETVGVLISSGNLTPEEQALYCDSLINALIGKANAALSSDLSALENIISVYCSLMAIGNFAKGFPARGSEEVAWLASFNKASDEIFLILDRMGFNEDIRGAVRFTSGRIINVVGPDMLPKVPQLISILLNSIDMNELVDVLSFISQLIHIYKDNMMEITNRMLPTLLMRIFSSLSAAPQGTDDAVKQNDLRKSYISFILQLLNKGFGSILFTEENQVYFDPLINSILHFANLVGEPATQKSSIALVSKMVSLWGGKDGIAGFENFTLSLTPLCFEMPVNPNFNTRDGQSLVVLGELAGLQKIILEKLGDIYKSYLVTVYFPTVNFPDVMASEYLQALSNLDSRSFKQFFQKFIQALKSGNV	soluble
MKEDPRIIKTLSKLQKAFVMLLKTYDAGDINVRQISDEAGVTRGAFYSHFSDKKEFVNFTINELVGSLFNSSLEHHHHHH	not soluble
MKIEENMELPVILVTSGVLLPGASLKIPIRSKLNIQTIEKYLTRSSNDNYVVIAYKVSTDKVYEVATIAYVEKLFGWTFNSTVHYSLDVIGLHRANIDKLSLPTCIVSKVVDLNEAISNQNAIEKLVTGAKIIASNSLTDKFSREIYSLIDEKEYGKLADLCVSQMKFLGFMQLLEFLGANGTDARVEMCIKWMNEKKDANTLKLKVPNSLEASFPVDGKKRKIPNVKNQVEQLEEKLNAIEFSDEVSDRVYSELHRLKSMNAQQSEYNILMNWLELVSSLPWNTSTIDDIELHKARTILTESHEAMDDVKERVLEHLAVCKMNNSVKGMILCFTGPPGIGKTSIAKAIAESMGRKFQRVSLGGIRDESDIRGHRRTYVAAMPGRIIEALKTCKTNNPVFLLDEVDKLYSGNQGSPSAALLELLDPEQNSTFHDHYLNIPFDVSKIMFIATANDIDRLEPALRDRLEIIEMSGYSLKEKVKICENHLLTRQLTKHCISHDYVKLERQAIVAMIEEYTMEAGVRQLERNVGAICRNVALRLAEALNSDPGADVLPVMELPIQISASNIHKILKNKHMKRVKIVEKMRPLPAGVCFGLSVTTIGGRVMPIEASKSKGTGKIVTTGHLGKVLKESILVAKGWLSANSERLGLGTLEDQDIHVHLPAGAVNKDGPSAGTGLACALVSLATNIPLRSDAAVTGEISLTGHVLPIGGVKEKVLAAQREGLRRVVLPKSNEEEYLKMDEDIRLEMDVVLAETIEDVIGAMMDKSPVLAKL	not soluble
MGSDKIHHHHHHMDIDRTILVQIQGLLVFESPLHHDERGYFLENWRKKDLLANGVPESFFHHKLQNNVSVSKQGVIRGMHCQGYEKLMTVAYGTFKMIFIDLRIDSPTYKSVDVIDVQPGRAVFVPGGVANGAQSLVNNGILNYLVADYYDPHKNYLGITPLDKDANLSWDSLLKPIISEKDQAAKSFKEVLEIIESSKKKVALIGSTGAVGKVLFDTLRKQSDIDLSCFNRNNIEEALKDFYDMVICTAPSSEKLLTNLSLKNDDAEIEKLVNVLKNIQTGHMILVSTKSVFDSGARYSAIHQKIYNSVIEAHQNSNTIYIMDTLYGKTLKKGFINDLLSRQWTYISNDIVLDKPELENYYQKVNDQLWSLVEPLPNELLSTLEPISDIYPDEMCYQVTAINDLVSHLMANLNRIDGVKLGIDKSEIFTGRQIKNLLKNPDNSTLGRYFKKQEGDFNLENL	not soluble
MRKTFRQPHALAAMVIAMLMAQLSGCATTSAQTSPTEFGAGLPEAEDHSESAEPQSVEAEVIDERYADVWEKIQHARTIDVHDDAEVRKQRNFFDDKQKFMTQVTQRAEPFLYYIVSQLEARNMPLELALLPIVESGYNPLAQANGPAGLWQMIPATGRNFGLTINSAYDGRKDALASTDAVLDYLQHLYNTLGNDWINAVAGYNSGELVIKAAIDRNKAKGKPTDFWSLNIPARQVQTVPKWLAFIQIIREPSHYNLKVMPIANRPFLERLPAPNGVEISQIANAAGLTKAEFKTYNPGYRQSVIPSKGKYQIALPIENIGHYQENQHKLYAQKRYDSQTYIVKSGDSLGTIAAKFDLSVKELKQANNLTSDRLKIGQELTLLTPMAANDNEPEPVKTKANTDKSSTKANASSTKATSSKSTDKPVAKAKTYKVKSGDSLDKIARKSKVKLADLMKWNQLNAKSIIKPGQELKISELEHHHHHH	soluble
MGHHHHHHSHMAFILCPLTCPGECEGSTGKLECCLCLPSQWAVLTAAPHPYRWSQEAGRVGEGKIGKTGRPRPRQNSLSSLHFWSPVVMCL	not soluble
MESELSGISNENQISFFGFSAGSFSDSIFNIYVDAWEEVCSNEFKNSLKKLTDKDRLCLLSFPFSDKTNEKAFKMMKRFCVTNIFRIPASVTLPECKKMLIASAKEHKSLKQVEKEFDEKLEKIRQLRIKLAKRHDELEAVNNAIEVLHVMEKSQEQLISQKRIVPDSPTRMSPV	not soluble
MSKFYSEQFKRDAVALYENNENLSLAAAAAELRVNRASLHQWKKELGTGKRTRMIEAKAQAEAASDAERIRALEKENAKLREERDILRKAAKYFAEETSWLEHHHHHH	not soluble
MTEIYEQAKHSLQGEDFSSFNYLFAVNKLLSNPVSYDLGRDLIVRALDSRERFSEHTTILKNMVRKSGLFPYLKKEFTSLTPDDLRVLELYRTPFSDGYVFHSMQFHIFDLLKSGQNVVLSAPTSMGKSAIVDSLLGMGTLKRLVLVVPTVALADETRRRLQERFGDRYQIIHHSSQVCHSDQAVYVLTQERVNERDDIVDIDLFVIDEFYKLAFRQLKSGDIDHQDERVIELNIALSKLLKVSRQFYLTGPFVNSIRGLEKLGYPHTFVSTDFNTVALDVKTFGIKANDDKAKLKALGEIAHACVDATIIYCKSPTVAGLVARELIRLGHGTPTENPHVDWVSEEFDADWDYTVALRNGIGLHFGALPRALQQYTADQFNAGKLRFLLCTSTIIEGVNTIAKNVVIYDNRDGTRSIDKFTHGNIKGRAGRMGVHFVGKIFCLEEIPEDNLNQEVDIPLGIQGIDTPINLLASVQPDHLSEFSQDRFDEVFINDRVSIDLVKKHSYFRVEQFEMLQSMFEMMDDNEFSSLVFHWTPATNFLKTFAKIIARLVPHTFSRNGVPVKPTDVMIAKLAGYLSAESYSEYLKNQIDYARQWISEGEKRTLSIALNNDLKLITNTFGYTLPKVLSLMEDVVKHHAVKRGIRSKVDYTHVKLAFESFHLPPGVNALEEIGIPIQTLHRLVDLLEFSDEADVDELSQYLRDTQDIWSRSIGYVDQMFIRRALGIRRH	not soluble
RIEEVKERFVNLNRLFQELVGDFQAKSDQLVSVIQDMEKISENIMEELKKSGTNVDQIVERVKEASSQIGETLENIRSIEKLIQNIMRIARETNILALNATIEAARAGEAGKGFMIVANEVQNLSNETNEVTKQIVEKAREILESSQRSLENLEFMANLFETVGKTLQNMVRFMENIVKLLQEVRNSLDTSKESLSEKSAEIDSATKVLEETA	soluble
MRPDDAIELFNSCRGHCIERQNYIENLQKRHVRKNRNVSAPRTDGLEDSADPTEQVYTNNKPVKKKPRKNRRGGHLAPSQHFQHQTQSSPYSLRKWSQNQSVYQRGLVPPPGPAGEDYSQRRFFWSARPNKWTAESYQRPFYPYYWEWNL	not soluble
KEDMATSELNKTVQKVEEVSKKIKNKAKPKVVWASVYEGSAYIAPKDSYVDNMIKMAGGINACASIDSNEGRVSIEQLHEVAKDADIFVYSSSSDYAPNLDSIKSSAPVLADLDVVKNGNLWVFAPDYYQSVDKTDELIVDLVEMFHPGTTGEKIKHYINYDK	not soluble
